Source: patent US20060269536A1

Molecular target: hK3 (PSA) (human) (UniProt P07288)
Test: cell-based or functional assay

Chain of hK3 (PSA) (human) (P07288 25-261 limits assumed): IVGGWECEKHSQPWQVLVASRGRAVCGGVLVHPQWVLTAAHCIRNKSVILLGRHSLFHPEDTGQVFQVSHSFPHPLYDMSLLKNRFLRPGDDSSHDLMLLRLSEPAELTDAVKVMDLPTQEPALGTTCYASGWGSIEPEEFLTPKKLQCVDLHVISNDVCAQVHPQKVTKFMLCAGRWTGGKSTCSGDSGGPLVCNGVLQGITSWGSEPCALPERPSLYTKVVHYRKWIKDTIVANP

Inhibition % (residual enzyme activity, CFP-TFRSA-YFP substrate, 90 min at 37°): 45%
B1: rACT8.20 (designed binder)
chain: MRGSHHHHHHSRHPNSPLDEENLTQENQDRGTHVDLGLASANVDFAFSLYKQLVLKAPDKNVIFSPLSISTALAFLSLGAHNTTLTEILKGLKFNLTETSEAEIHQSFQHLLRTLNQSSDELQLSMGNAMFVKEQLSLLDRFTEDAKRLYGSEAFATDFQDSAAAKKLINDYVKNGTRGKITDLIKDLDSQTMMVLVNYIFFKAKWEMPFDPQDTHQSRFYLSKKKWVMVPMMSLHHLTIPYFRDEELSCTVVELKYTGNASALFILPDQDKMEEVEAMLLPETLKRWRDSLEFREIGELYLPKFSISRDYNLNDILLQLGIEEAFTSKADLSGITGARNLAVSQVVHKAVLDVFEEGTEASAATAVKITLRSRAVETRTIVRFNRPFLMIIVPTDTQNIFFMSKVTNPKQA
